Assay: yeast display, Sf9 membrane polyspecificity reagent, FACS + sequencing; frameworks hold sequencing errors
How it was run: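 In a synthetic yeast display library (Saccharomyces cerevisiae BJ5465), nanobody expression was induced with galactose for 36–48 hours. FACS gates were set low and high (top ~1%) using anti-HA fluorescence for expression and streptavidin fluorescence for binding of the Sf9 membrane reagent. Each polyreactivity label is drawn from the gate of origin.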

| Sequence | polyreactivity (PSR sort gate) |
| --- | --- |
| QVQLVESRGGLVQAGGSLRLSCAASGRIYSVYDMGWYRQAPGKESEFVAAIRSSGDSTYYADSVKGRFTISRDNAKNTVYLQMNSLKPDDTAVYYCAADVYRYRVRGLNYWGQGTQVTVSS | high polyreactivity |
| QVQLVESGGGLVQAGGSLRLSCAASGNIFYYYAMGWYRQAPGKERELVATISKGGGSTNYADSVKGRFTISRDNAKNTVYLQMNSLKPEDTAVYYCNASYVSRRYHFDYWGQGTQVTVSS | high polyreactivity |
| QVQLQESGGGLVQAGGSLRLSCAASGSIFLFYTMGWYRQAPVKEREFVAGITLGTTTYNADSVKGRFTISRDNVKNTVYLQMNSLKPEDTAVYYCNAVGDARYNYWGQGTQVTVSS | high polyreactivity |
| QVQLVESGGGLVQAGGSLRLSCAASGSIYYAMGWYRQAPGKEREFVAAINSGGSTYYADSVKGRFTISRDNAKNTVYLQMNSLKPEDTAVYYCAADVWTPYLMSLKYGYDYWGQGTQVTVSS | low polyreactivity |
| QVQLVESGGGLVKAGGSLRLSCAATGRIFEYNTMGWYRQAPGKERELVAAITGGTGSTYYADSVKGRFTISRDNAKNTVYLKMNSLKPEDTAVYYCAADYTSPAFYSSFDYWGQGTQVTVSS | low polyreactivity |
| QVHLVESGGGLVQAGGSLRLSCAASGFTFRVYAMGWYRPAPGKERELVAAITKRGGSTYYADSVKGRFTISRDNAKNTVYLQMNSLKPEDTAGYYCATENTPHYASHGYWGQGTQVTVSS | high polyreactivity |
| QVQLVESGGGLVQAGGSLRLSCAASGSIFDPYAMGWYRQAPGKERELVAVINDGGRTTYADSVKGRFTISRDNAKNTVYLQMNSLKPEDTAVYYCAATYYFSRWDLFGYWGQGTQVTVSS | low polyreactivity |
| QVQLVESGGGLDQAGGRLRLSCAASGITFGRNTMGWYRQSPGKERELVAAIDSGGNTYADSVKGRFTISRDNAKNTVYLQMNSLKPEDTAVYYCAVDGGEFSSYGYWGQGTQVTVSS | low polyreactivity |
| QVQLVESGGGLFQAGGSLRLSCAASGSTFYRYTMGWYRQAPGKERELVASISRSGGSTYYADSVKGRFTISRDNAKNTVYLQMNSLKPEDTAVYYCAAKAQGKYYQYNYWGQGTQVTVSS | high polyreactivity |
| QVQLVESVGGLVQSGGSLRLSCAASGFIFVVYAMGSYRQAPGKERELVATISSGGGTYYADSVKGRFTISRDNAKNTVYLQMNSLKPEDTAVYYCAARRRRLYHFGGNNYWGQGTQVTVSS | high polyreactivity |
| QVQLVESGGGLVQAGGSLRFSCADSGRTFRYYAMGWDIQARGKERELVAAISRGGRTNYGDSVKGRFTISRDNAKNTVYIQMNSLKPVDTAVYYCAVGGYSYYTVGYDYWGQGTQVTVSS | high polyreactivity |
| QVQLVESGGGLVQAGGSLRLSCAASGSTFFRYAMVWYRQAPGKERELVAAITWTGGDTYYEDSVKVRFTISRDNAMNTVYLKMNSLKPEDTAVYYCNKRLDSYYLPGFDYWGQGTQVTVSS | low polyreactivity |
| QVQLVESGGGLVQAGGSLRLSCAASGRTFTPNAMGWYRQAPGKERELVASIRRGTSTYYADSVKGRFTISRDNAKNTVYLQMNSLKPEDTAVYYCAAKSYHGYPFDYWGQGTQVTVSS | high polyreactivity |
| QVQLVESGGGLVQAGGSLRLSCAASGSTFDGYAMGWYTQAPGKERELVAAISKNGGRTYYADSVKGRFTISRDNAKNTVYLQMNSLKPEDTAVYYCAIDIIKYDYDYWGQGTQVTVSS | low polyreactivity |
| QVQLVESGGGLVQAGGSLRLSCAASGSTFVVYAMGWYRQAPGKERELVAAISYRAGITYYADSVKGRFTISRDNAKNTVYLQMNSLKPEDTAVYYWAADRYYGVGSGYWGQGTQVTVSS | high polyreactivity |
| QVQLVESGGGLVQAGGSLRLSCAASGLIFRYYAMGWYRQAPGKERELVAAISWSGASTYYADSVKGRFTISRDNAKNTVYLQMNSLKPEDTAVYYCGRVSYYYPSEYNYWGQGTQVTVSS | high polyreactivity |

| Sequence | polyreactivity (PSR sort gate) |
| --- | --- |
| QVQLVESGGGLVQAGGSLRLSSPASGRIFITNAMGWYRQAPGKERELVASITVSGDSTYYADSVKGRFTISRDNAKNPVYLQMNSLKPEDTAVYYCAADYYALDKVLGNNYWGQGTQVTVSS | low polyreactivity |
| QVQLVESGGGLVQAGGSLRLSCAGLRIYLPGYARGWYRQAPGKERELVAVISGSGSGTYYADSVKGRFTISRDNAKNTVYLQMNSLKPEDTAVYYCAADDVGRGSTPYDYWGQGTQVTVSS | high polyreactivity |
| QVQLVESGGGLVQAGGSLRLSCAASGRTLARNAMGWDRQAPGKERELVASINGRTTRTYYADSVKGRFTISRDNAKNTVYLQMNSLKPEDTAVYYCAADPPGYVYGKRYYWGQGTQVTVSS | high polyreactivity |
| QVQLQEGGGGLVQAGGSLRLSCAASGYISYGDVMGWYRQAPGEERELVASIGLDATTNYADSVKGRFTISRDNAKITVYVQMNSLKPEDTAVYYCAADVGSGVLCGYWGQGTQMTVSS | high polyreactivity |
| QVQLVESGGGLVQAGGSLRLSCAASGRTFIINTMGWYRQAPGKERELVAAISKNGATTNYADSVKGRFTISSDNAKNSVYLQMNSLKPEDTAVYYCNARYSGYLRLDYWGQGTQVTVSS | low polyreactivity |
| QVQLVESGGGLVQAGGSLRLSCAASGSTFPTYSMGWYRQAPGKERELVAAITSGSGTNTYYADSVKGRFTISRDNAKNTVYLQMNSLKPEDTAVYYCAKSFRKKYGWGQGTQVTVSS | high polyreactivity |
| QVQLQESGSGLVQAGGSLRLSCAASGNISQYNDIGWYRQAPGKEREPVATINSGSITYYADSVKGRLTISRDNAKNTVYLEMNSLKPEDTAVYYGAVKQHGFVYLEYWGQGTQVTVSR | high polyreactivity |
| QVQLVESGGGLVQAGGSLRLICAASGITFYYYAMGWYRQAPGKERELVAAISTRSGSTYYADSVKGRFTISRDNAKNTVYLEMNSLKPEDTAVYYCAARYRSAGHRYDYWGQGTQVTVSS | high polyreactivity |
| QVQLVESGGGLDQAGGSLRLSSAASGLTFGGNAMGWYRQAPGKERELVAAISWSDDTTDYADSVKGRFTISRDNAKNTVYLQMNSLKPEDTAVYYCAARLPFEHVEYWGQGTQVTVSS | low polyreactivity |
| QVQLVESGGRLVQPGGSLSLSCADSGNIFYWNTMGWYRQAPGKERELVATISWSGRTTYYADSVKGRFTISRDNEKNTVYLQMNSLKPEDTAVYYCAADVTSGVYSFSFDYLGQGTQVTVSS | low polyreactivity |
| QVQLVESGGGLLQAGGSLRLSCAASGLTFVDYAMGWYRQAPGKERELVAAITTSGGSITYYSDSVKGRFTISRDNAKNTVYLQMNSLKPEDTAVYSCNADYGIYTDSFRGPDYESWGQGTQVTVSS | low polyreactivity |
| QVQLVESGGGLVQAGGSLRLSCAASGIIFDYYDMGWYRQAPGKERELVAAISAGGGSTYYADSVKGRFTISRDNAKNTVYLQMNSLKPEDTAVYYCAALYWRSTVGAYSTYEYDYWGQGTQVTVSS | high polyreactivity |
| QVQLVESGGGLVQAGGSLRLSCAASGRTFGSYAMGCYRPAPVKEREVVAGITWRDGSTYYADSVKGRFTISRDNAKNTDYLQMNSLKPEDTAVYYCAKEAVRYYLFGMEYWGQGTQVTVSS | low polyreactivity |
| QVQLVESGGGLVQAGGSLRLSCAASGRTFRANTMGWYRQAPGKERELVAAINWSGGSTYYADSVKGRFTISRDNAKNTVYLQMNSLKPEDTAVYYCAKRVSVSYRKSTYDYWGQGTQVTVSS | high polyreactivity |
| QVQLVESGGGLVQAGGSLRLSCAASGSTFHLYAMGWYRQAPGKETEFVPAIRGRGGNTYADSVKGRFTISRDNAKNTVYLQMNSLKPEDTAVYYCAAPLLRDLRSPYSYNYWGQGTQVTVSS | low polyreactivity |
| QVQLVESGGGLVQAGGSLRLSCAASGSTFATYAMGWYRQAPGKERELVAVITLGGRTYYADSVKGRFTISRDNAKNTVYLQMNSLKPEDTAVYYCAAKAYTYYARIGFDYWGQGTQVTVSS | high polyreactivity |

— the nanobody polyreactivity screen of Harvey et al. (2022)
